Here are results for 22 molecules from patent US20240043504A1 (published 2024).

Positions count from the first letter of the chain named.

B1: mAb10932 (antibody, V domains shown)
VH: EVQLVESGGGLVQSGGSLRLSCAASGLTVSSNYMSWVRQAPGKGLEWVSVIYSGGSTFYSDSVKGRFTISRHNSKNTLYLQMNSLRAEDTAVYYCARARGDAFDIWGQGTMVTVSS
VL: not shown
B2: mAb10934 (antibody, V domains shown)
VH: not shown
VL: DIQMTQSPSSLSASVGDRVTITCQASQDIWNYINWYQQKPGKAPKLLIYDASNLKTGVPSRFSGSGSGTDFTFTISSLQPEDIATYYCQQHDDLPPTFGQGTKVEIKR
B3: mAb10913 (antibody, V domains shown)
VH: EVQLVESGGGLVQPGGSLRLSCAASGFTFRNYEMNWVRQAPGKGLEWVSYITSSGSTMYYADSVKGRFTISRDNAKNSLYLQMNSLRAEDTAVYYCARDGFYYYYAMDVWGQGTTVTVSS
VL: QSVLTQPPSVSAAPGQKVTISCSGSSSNIGNNYVSWYQQLPGTAPKLLIYDNNKRPSGIPDRFSGSKSGTSATLGITGLQTGDEADYYCGTWDSSLSVGRVFGTGTKVTVLG
B4: mAb11004 (antibody, V domains shown)
VH: QVQLVESGGGVVQPGRSLRLSCVASGFTFSIYGMDWVRQAPGKGLEWVAVISYDGSNKYYADSVKGRFTISRDNSKNTLYLQMNSLRPEDTAVYYCAKDREAAADAFDIWGQGTMVTVSS
VL: DIQMTQSPSSVSASVGDRVTITCRASQGISSWLAWYQQKPGKAPKLLIYAASSLHSGVPSRFSGSGSGTDFTLTISSLQPEDFATYYCQQANSFRLTFGGGTKVEIKR
B5: mAb10966 (antibody, V domains shown)
VH: EVQLVESGGGLVQPGGSLRLSCAASGLTVSSNYMSWVRQAPGKGLEWVSVIYSGGSTFYADSVKGRFTISRDNSKNTLYLQMNSLRPEDTAVYYCAREGRIAATGYGMDVWGQGTTVTVSS
VL: not shown
B6: mAb10982 (antibody, V domains shown)
VH: EVQLVESGGGLVQPGGSLRLSCAASGLTVSSNYMSWVRQAPGKGLEWVSVIYSGGTTYYADSVKGRFTISRHNSKNTLSLQMNSLRAEDTAVYYCARGEGANYYGMDVWGQGTTVTVSS
VL: QSVLTQPPSVSGAPGQRVTISCTGSSSNIGTGYDVHWYQQLPGTAPKLLIYGNSNRPSGVPDRFSGSKSGTSASLAITGLQAEDEADYYCQSYDSSLSGYVVFGGGTKLTVLG
B7: mAb10986 (antibody, V domains shown)
VH: EVQLVESGGGLVQPGGSLRLSCAASEFTVSSNYMSWVRQAPGKGLEWVSVIYSGGSTFYADSVKGRFTISRDNSKNTLYLQMNSLRAEDTAVYYCARALPYGDLHFDYWGQGTLVTVSS
VL: B6 VL with S54T, G99D, Y100S, V101Y, G105T, L109V
B8: mAb10985 (antibody, V domains shown)
VH: EVQLVESGGGLVQPGRSLRLSCAASGFTFDDYAMHWVRQAPGKGLEWVSGISWNRGSIGYADSVKGRFTISRDNAKNSLYLQMSSLRAEDTALYYCAKDGERWDSVVVPSARNGMDVWGQGTTVTVSS
VL: B6 VL with T31A, Y100S, V101Y, G105T, L109V
B9: mAb10998 (antibody, V domains shown)
VH: EVQLVESGGGLVHPGGSLRLSCAASGLTVSSNYMSWVRQAPGKGLEWVSVIYSGGSTYYADSVKGRFTISRHNSKNTLFLQMNSLRAEDTAVYYCARDRPITGTTLDVWGQGTTVTVSS
VL: DIQMTQSPSSLFASVGDRVTITCRASQSISSYLNWYQQKPGKAPKLLIYAASSLQSGVPSRFSGSGSGTDFTLTISSLQPEDFAFYYCQQTYSTPPITFGQGTRLEIKR
B10: mAb11010 (antibody, V domains shown)
VH: QVQLVESGGGVVQPGRSLRLSCAASGFTFSSYGMHWVRQAPGKGLEWVAVISYDGSYKYYADSVKGRFTISRDNSKNTLYLQMNSLRAEDTAVYYCAIDGGTVTTIFDYWGQGTLVTVSS
VL: not shown
B11: mAb10956 (antibody, V domains shown)
VH: EVQLVESGGGLVQPGGSLRLSCAASGLTVSSNYMSWVRQAPGKGLEWVSVIYSGGSTFYADSVKGRFTISRDNSKNTLYLQMNSLRAEDTAVYYCARDLIKYGMDVWGQGTTVTVSS
VL: not shown
B12: mAb10971 (antibody, V domains shown)
VH: B11 VH with V12I, L27V, A60S, T68S, I100Y, K101Y
VL: DIQLTQSPSFLSASVGDRVTITCRASQGISTYLAWYQQKPGKAPKLLIYAASTLQSGVPSRFSGSGSGTEFTLTISSLQPEDFATYYCQQLDSYPGLTFGGGTKVEIKR
B13: mAb10957 (antibody, V domains shown)
VH: B11 VH with L27V, Y79F, A87I, I100G, K101P
VL: B12 VL with T31S, E70Q, T72I, D92N, L97F, G101P, E106D
B14: mAb10969 (antibody, V domains shown)
VH: QVQLVESGGGVVQPGRSLRLSCAASGFTFSSYAMHWVRQAPGKGLEWVAVISYDGSNKYYADSVKGRFTISRDNSKNTLYLQMNSLRAEDTAVYYCARDGRTITMVRGVIDDAFDIWGQGTMVTVSS
VL: not shown
B15: mAb11002 (antibody, V domains shown)
VH: EVQLVESGGGLVQPGGSLRLSCAASGFTVSSNYMSWVRQAPGKGLEWVSVIYSGGSTFYADSVKGRFTISRHNSKNTLYLQMNSLRAEDTAVYYCAREGYGMDVWGQGTTVTVSS
VL: not shown
B16: mAb11006 (antibody, V domains shown)
VH: EVQLVESGGGLVQPGGSLRLSCAASGFIVSRNYMSWVRQAPGKGLEWVSVIYSGGSTFYADSVKGRFTISRHNSKNTLYLQMNSLKAEDTAVYYCARELRGYFDYWGQGTLVTVSS
VL: DIQLTQSPSFLSASVGDRVTITCWASQGISSYLAWYQQKPGKAPKLLIYAASTLQSGVPSRFSGSGSGTEFTLTISSLQPEDFATYYCQLLNSYPYTFGQGTKLEIKR
B17: mAb11008 (antibody, V domains shown)
VH: EVQLVESGGGLVQPGGSLRLSCAASGFTVSSNYMTWVRQAPGKGLEWVSVIYSGGSTFYADSVKGRFTISRHNSENTLYLQMNSLRAEDTAVYYCARDLAAAGTDYWGQGALVTVSS
VL: B16 VL with E81D, L90H, P95L
B18: mAb10964 (antibody, V domains shown)
VH: QVQLQESGPGLVKPSETLSLTCTVSGGSINNYYWIWIRQPPGKGLEWIGYIYHSGSTNYNPSLKSRVTISVDTSKNQFSLKVSSVTAADTAVYYCANMVRGVYEDDYWGQGTLVTVSS
VL: DIQMTQSPSSLSASVGDRVTITCRASQSISNYLNWYQQKPGKAPKLLIFAASSLRSGVPSRFSGSGSGTDFTLTISSLHPEDFATYYCQQNYNTPLTFGPGTKVDIKR
B19: mAb10967 (antibody, V domains shown)
VH: EVQLVESGGGLVQPGGSLRLSCAASGFTVSSNYMSWVRQAPGKGLEWVSVIYPGGSTFYADSVKGRFTISRDNSKNTLYLQMNSLRAEDTAVYYCARDQRDFAWGQGTLVTVSS
VL: B2 VL with W30S, I33L, K55E, S77G, H91Y, D93N, K103R, V104L
B20: mAb10965 (antibody, V domains shown)
VH: EVQLVESGGGLIQPGGSLRLSCAASVFTVSYNYMSWVRQAPGKGLEWVSVIYSGGSTYYADSVKGRFTISRDNSKNTLYLQMNSLRAEDTAVYYCARALPGWGGSFEYFDYWGQGTLVTVSS
VL: not shown
B21: mAb10989 (antibody, V domains shown)
VH: QVQLVQSGAEVKKPGASVKVSCKASGYIFTGYYMHWVRQAPGQGLEWMGWINPNSGGANYAQKFQGRVTLTRDTSITTVYMELSRLRFDDTAVYYCARGSRYDWNQNNWFDPWGQGTLVTVSS
VL: QSALTQPASVSGSPGQSITISCTGTSSDVGTYNYVSWYQQHPGKAPKLMIFDVSNRPSGVSDRFSGSKSGNTASLTISGLQAEDEADYYCSSFTTSSTVVFGGGTKLTVLG
B22: mAb10984 (antibody, V domains shown)
VH: EVQLVESGGGLVQPGGSLRLSCAASGLTVNRNYMSWVRQAPGKGLEWVSLIYSGGSTYYADSVKGRFTISRDNSKNTLYLQMNSLRLEDTAVYYCARGELGIPYGMDVWGQGTTVTVSS
VL: QSVLTQPPSVSAAPGQKVTISCSGSSSNIGNNYVSWYQQLPGTAPKLLIYDNNKRPSGIPDRFSGSKSGTSATLGITGLQTGDEADYYCGTWDSSLSAGVFGGGTKLTVLG

One assay deals with SARS-CoV-2 RBD extracellular domain expressed with a C-terminal mouse IgG2a (SARS-COV-2 RBD-mFc) (SARS-CoV-2).
Test: not given
As for B1, the Kd was no more than 0.0413 nM, the koff is no more than 1e-05 s⁻¹, the kon worked out at 242000 M⁻¹ s⁻¹ and the t1/2 was no less than 19.2 h.
Turning to B2, binding was characterised by a dissociation constant (Kd) of 0.0832 nM and the t1/2 turned out to be 1.64 h.
B3 returned a Kd of 0.244 nM, a koff of 0.000152 s⁻¹, a kon of 623000 M⁻¹ s⁻¹ and a t1/2 of 1.27 h.

Another assay has as its target SARS-COV-2 RBD extracellular domain expressed with a C-terminal mouse IgG2a (SARS-COV-2 RBD-mFc) (SARS-CoV-2). The assay is described as follows: SPR, captured mAb, RBD-mFc in solution, 37 C. On the technique in general: Surface plasmon resonance follows binding to a sensor surface in real time, without labels.
Turning to B4, binding was characterised by a dissociation constant (Kd) of 0.117 nM, the koff is 0.000118 s⁻¹, the kon stood at 1.01e+06 M⁻¹ s⁻¹ and the “t½” value amounted to 1.63 h.
Consider B5, for which the affinity, expressed as Kd, was 0.0405 nM and the “t½” value was 1.94 h.
Take B6: the Kd was found to be 0.21 nM, the koff was 0.000258 s⁻¹, the kon turned out to be 1.23e+06 M⁻¹ s⁻¹ and the “t½” value is 0.747 h.
B7: the affinity, expressed as Kd, was 0.0126 nM and the “t½” value is 3.32 h.
Turning to B8, binding was characterised by a dissociation constant (Kd) of 0.0401 nM and the “t½” value amounted to 0.513 h.
Take B9: binding was characterised by a dissociation constant (Kd) of 22.4 nM, the koff stood at 0.0197 s⁻¹, the kon is 879000 M⁻¹ s⁻¹ and the “t½” value came out at 0.01 h.
Take B10: the affinity, expressed as Kd, was 0.0505 nM and the “t½” value came to 2.4 h.
In the case of B11, the affinity, expressed as Kd, was 0.158 nM and the “t½” value is 0.563 h.
B12: the Kd was determined as 0.0397 nM, the koff was 9.41e-05 s⁻¹, the on-rate constant (kon) came out at 2.37e+06 M⁻¹ s⁻¹ and the “t½” value stood at 2.04 h.
On to B13, for which the affinity, expressed as Kd, was 0.0463 nM and the “t½” value came to 2.68 h.
As for B14, binding was characterised by a dissociation constant (Kd) of 0.174 nM and the “t½” value worked out at 1.36 h.
Regarding B15, binding was put at a Kd of 32.6 nM and the “t½” value was found to be 0.0117 h.
In the case of B16, binding was characterised by a dissociation constant (Kd) of 0.197 nM and the “t½” value amounted to 2.52 h.
Consider B17, for which binding was characterised by a dissociation constant (Kd) of 0.872 nM, the koff was determined as 0.000405 s⁻¹, the kon came to 464000 M⁻¹ s⁻¹ and the “t½” value came to 0.475 h.
As for B18, the “t½” value turned out to be 1.53 h.
On to B19, for which binding was characterised by a dissociation constant (Kd) of 0.0229 nM and the “t½” value worked out at 5.78 h.
B20: the Kd turned out to be 0.237 nM and the “t½” value is 0.57 h.
B21: the “t½” value turned out to be 0.527 h.
Consider B22, for which the Kd is 0.0404 nM and the “t½” value amounted to 2.3 h.

A word on the Kd: it is the equilibrium constant for the complex coming apart. What is called koff is the rate constant with which the complex falls apart. A lower koff goes with a long-lived complex. The kon is the second-order rate constant of association. A high value points to fast association. Usually t½ stands for the time needed for the level to fall by half in the phase considered. Lower therefore signals rapid decline.
